Assay results from paper doi:10.1101/2024.08.19.608659.

Target: hATP5A1 pre-protein (F1-ATP synthase subunit alpha precursor) (Homo sapiens, UniProt P25705)
Assay: EMSA

Binder: CUUUCCGCUCGGCUGUUUUCCUGCGCAGGAGCCGCA (ssRNA) [RPL13 RNA ligand]
- binding result: binds
